The results in this text go back to the nanobody polyreactivity screen of Harvey et al. (2022).

This data set can be described thus: yeast display, Sf9 membrane polyspecificity reagent, FACS + sequencing; frameworks hold sequencing errors. In short, it runs like this:
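Genes from sorted yeast were amplified by colony PCR, read by MiSeq 2 × 250 sequencing and filtered on CDR length. These cells carried a synthetic nanobody library in Saccharomyces cerevisiae BJ5465 and were sorted by FACS into low and high (top ~1%) gates on anti-HA and streptavidin fluorescence. Polyreactivity is labelled according to the gate of origin.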
In the case of “QVQLVESGGGLVQAGGSLRLSCAASGLTFYQYAMGWYRQAPGKERELVAAISKSAGSTYYADSVKGRFTISRDNAKNTVYLQMNSLKPEDTAVYYCNAARPFTRVPRQTWKMGYWGQGTQVTVSS”, the “polyreactivity (PSR sort gate)” value is on record as “high polyreactivity”.

Regarding “QVQLVESGGGLVQAGGSLRLSCAASGRTLAKNAMGWYRQAPGKERELVAAISRRGGSTYYADSVKGRFTISRDNAKNTVYLQMNSLKPEDTAVYYCARASRQGYYQLSYDEFDYWGQGTQVTVSS”, the “polyreactivity (PSR sort gate)” value was “high polyreactivity”.

Consider “QFQLVESGGGLVQAGGSLRLSCAASGSTFTQNTMGWYRQAPGKERELVAAISRRGGGTYYADSVKGRFTISRDNAKNTVYLQMNSLKPEDTAVYYCNAPYILTQQGGRRYDYWGQGTQVTVSS”, for which the “polyreactivity (PSR sort gate)” value is “high polyreactivity”.

On to “QVQLVESGGGLVQAGGSLSLSCAASGFTFPLYAMGWYRPAPGKERELVASISKSGGRTYYADSVKGRFTISRDNAKNTVYLQMNSLKPEDTAVYYCATLPRYYGYWGQGTQVTVSS”, for which the “polyreactivity (PSR sort gate)” value is “high polyreactivity”.

As to “QVQLEESGGGLVQAGGSLRLSCAASGFIFQYNAMGWYRQAPGKEREFVDAINYSGGNTYYADSVKGRFTISRDTAKNTVYLQMNSLKPEDTAVYYCNVRLWYGRWWYNRYNYWGQGTQVTVSS”, the “polyreactivity (PSR sort gate)” value was “high polyreactivity”.

As to “QVQLVESGGGLVQAGGSLRLSCAASGITFSYYTLGWYRQAPGKERELFARINSGGTTNYADSVKGRFTISRDNAKNTVYLQMNSLKPEDTAVYYCAAEWVSWRWAHKFDYWGQGTQVTVSS”, the “polyreactivity (PSR sort gate)” value is recorded as “high polyreactivity”.

On to “QVQLVESGGGLVQAGGSLRLSCAASGTFSYYAMGWYIQAPGKERELVATIRSGGRTYYADSVKGRFTISRDNAKNTVYLQMNSLKPEDTAVYYCAKTGFLGLRQYGYWGQGTRVTVSS”, for which the “polyreactivity (PSR sort gate)” value was “high polyreactivity”.

As to “QVQLVESGGGLVQAGGGLRLSCAASGFIFSLYAMGWYRQAPGKERELVAAISKRGGSTNYADSLKGRFTISRDNAKNTVYLQRNSLKPDVTAVYYCAATRNYYGRYDYWGQGTQVTVSS”, the “polyreactivity (PSR sort gate)” value is on record as “high polyreactivity”.

For the sequence “QVQLVESGGGLVQAGGSLRLSCAASGSIFSSYAMGWYRQAPGKERELVATITSSGGSTYYADSVKGRFTISRDNAKNTVYLQMNSLKPEVTAVYYCAASYHTSYSLRSYYYWGQGTQVTVSS”, the “polyreactivity (PSR sort gate)” value is reported as “low polyreactivity”.

Take “QVQLVESGVGLVQAGGSLRLSCAASGYTLDNYAMGWYRQAPGKERELVAGITFSGGSTFYADSVKGRFTISRDNAKNTVYLQMNSLKPEDTAVYYCAADAEFQADHKYGYWGQGTQVTVSS”: the “polyreactivity (PSR sort gate)” value is on record as “low polyreactivity”.

Regarding “QVQLVESGGGLDQAGGSLRLSCAASGRTFGYYARGWYRQAPGKERELVAAISYSGGTTYYADSVKGRYTISRDNAKNTVYLQMNSLKPEDTAVYYCATGGYSTRQSTFDYWGQGTQVTVSS”, the “polyreactivity (PSR sort gate)” value is listed as “low polyreactivity”.

With “QVQLVESGGGLVQAGGSLRLSCAASGFTFDDYVMGWYRQAPGKERELVAAISRSGGSTYYADSVKGRFTISRDNAKNTVYLQMNSLKPEDTAVYYCAARTYSWGDWGQGTQVTVSS”, the “polyreactivity (PSR sort gate)” value was “high polyreactivity”.

Turning to “QVQLVESGGGLVQAGGSLRLSCAASGSIFTYYAKGWYRQAPGKERELVAAISRRGTRTYYADSVKGRFTISRDNAKNTVYLQMNSLKPEDTAVYYCAKVGYTYRAYEFAYWGQGTQVTVSS”, the “polyreactivity (PSR sort gate)” value was “high polyreactivity”.

Consider “QVQLVESGGGLVQAGGSLRLSCAASGLTFWYYAMGWYRQAPGKERELVAAITISGGSTYYADSVKGRFTISRDNAKNTVYLQMNRLQPEDTAVYYCAKTFSYTGRYWGYDYWGKGTQVTVSS”, for which the “polyreactivity (PSR sort gate)” value is listed as “high polyreactivity”.

Take “QVQLVESGGGLVQAAGSLRLSCAASGRIFYSYAMGWYRQAPGKERELVAASSFSVGSTYYADSVKGRFTISRDNAKNTVYLQMNSLKPEDTAVYYCAASLGFPGYEYWGQGTQVTVSS”: the “polyreactivity (PSR sort gate)” value is on record as “low polyreactivity”.

For the sequence “QVQLVESGGGLVQAGGSLSLSCAASGRIIKFYAMGWYRQAPGKERELVARISRSGGRTYYSDSVKGRFTISRDNAKNTVYLQMNSLKPEDPAVYYCNADGDNRRDRYEYWGQGTQVTVSS”, the “polyreactivity (PSR sort gate)” value is given as “low polyreactivity”.

Regarding “QVQLVESGGGLVQAGGSLRLSCAASGRIFYSYAMGWYREAPGKERELVARITRGSSTYYADSVKGRFTISRDNAKNTVYLQMNSLKPEDTAVYYCAKSRYTALTNHWSHDYWGQGTQVTVSS”, the “polyreactivity (PSR sort gate)” value is recorded as “low polyreactivity”.

Regarding “QVQLVESGGGLVQAGGSLRLSCAASGLIFKYYAMGWYRQAPGKERELVASISRGGVTTYYADSVKGRFTISRDNAKNTVYLQMNSLKPEDTAVYYCAARFRYAPFYHWGQGTQVTVSS”, the “polyreactivity (PSR sort gate)” value is “high polyreactivity”.

“QVQLVEAGGGLVQAGGRLRLSSAASGNIFIWYALGWYRQAPGKERELVAAIRWSGGGTYYADSVKGRFTISRDNAKNTVYFQMNSLKPEDTAVYYCAAESSASWYNFWGYEYWGQGTQVTVSS”: the “polyreactivity (PSR sort gate)” value is “high polyreactivity”.

As to “QVQLVESGGGLVQAGGSLRLSCAASGRTFGRNAMGWYRQAPGKERELVAAISDRGASTYYADSVKGRFTISRDNAKNTVYLQMNSLKPEDTAVYYCAAVFWVDILPGDYWGQGTQVTVSS”, the “polyreactivity (PSR sort gate)” value is “low polyreactivity”.

As to “QVQLVESGGGLVQAGGRLRLSCAASGRIFPWYAMGWSRPAPGKERELVAAISWSGGRTYYADSVKGRFTISRDNAKNTVYLQMNSLKPEDTAVDYCNADKWRYPLSGWWKRYDYWGQGTQVTVSS”, the “polyreactivity (PSR sort gate)” value is reported as “high polyreactivity”.

Consider “QVQLVDSGGGLVQAGGSLRLSFAASGNIIYQNAMGWDRQAPGKERELVAAISSGGSTNYADSVKGRFTISRDNAKITVYLQMNSLKPEDTAVYYCAAEHWTESVWDDSWGQGTQVTVSS”, for which the “polyreactivity (PSR sort gate)” value was “low polyreactivity”.

With “QVQLVESGGGLVQAGGSLRLSCAASGRTFDEYAMGWYRQAPGKERELVDAINSSGNTYYADSVKGRFTISRDNAKNTVYLQMNSLKPEDTAVYYCAVRSYNTIYDDMDYWGQGTQVTVSS”, the “polyreactivity (PSR sort gate)” value is “low polyreactivity”.

On to “QVLLVESGGGLVQAGGSLRLSSAASGSIFNRYAMGWYRQAPGKDSEFVAAITYSGGSTYYADSVKGRFTISRDNAKNNVYLQMIRVKPEDTAVYYCAKAYYPKGRYGFDYWGQGTQVTVSS”, for which the “polyreactivity (PSR sort gate)” value was “high polyreactivity”.

Turning to “QVQLVESGGGLVQAEGSLRLSCAASGRTFRPYALGWYRQAPGKERELVAVITSGGRTDYADSVKGRFTISRDNAKNTVYLQMNSLKPEDTAVYYCNAGAVYWGYSRGWYERDYWGQGTQVTVSS”, the “polyreactivity (PSR sort gate)” value was “high polyreactivity”.

As to “QVQLVESGGGLVQAGGSLRLSCAASGLTFDEYAMGWYRQPPGKERELVARITQSGGSTYYADSVKGRFTISRDNAKNTVYLQMNSLKPEDTAVYYCNAGAPARYWWEGDYWGQGTQVTVSS”, the “polyreactivity (PSR sort gate)” value is “high polyreactivity”.

With “QVQLVESGGGLVQAGGSLRLSCAASGRIFVRYAMGWYRQAPGKERELVAAISSRGGTTYYADSVKGRFTISRDNAKNTVYLQMNSLKPEDTAVYYCAALYDSTYGGVLFDYWGQGTQVTVSS”, the “polyreactivity (PSR sort gate)” value is on record as “low polyreactivity”.

On to “QEQLQESGGGLVQACGSLRLSCAASGSISGSSTMGWYRQAPGKERELVASIAVGANTNYADSAKGRFTISRDNAKTTVYLQMNSLKPEDSAVYYCAADYWFGYGTYEYWGQGTQVTVSS”, for which the “polyreactivity (PSR sort gate)” value is “high polyreactivity”.

For “QVQLVESGGGLVQAGGSLRLSCAASGFTFPWYAMGWYRQAPGKERELVAAINTGGSTYYADSVKGRFTISRDNAKNTVYLQMNSLKPEDTAVYYCATLGRYRYLNTYYWGSHDYWGQGTQVTVSS”, the “polyreactivity (PSR sort gate)” value was “high polyreactivity”.

For the sequence “QVQLVESGGGLVQAGGSLRLSCSASGSIFYWYDMGWYRLAPGKERELVAAISSGGSTNYADSVKGRFTISRDNAKNTVYLQMISLKPEDTAVYYCNADVPLRYGPIYFRRLDYWGQGTQVTVSS”, the “polyreactivity (PSR sort gate)” value is listed as “low polyreactivity”.

“QVQLVESGGGLVQAGRSLRLSCAASGSILLYYTMGWYRQAPGKERELVASITSGGRTYYADSVKGRFTISRDNAKNTVYLQMNSLKPEDTAVYYCAADVWKLYDYWGQGTQVTVSS”: the “polyreactivity (PSR sort gate)” value was “low polyreactivity”.

As to “QVQLVESGGGLVQAGGSLRLSCASSGRTFRVNAMVRYRHAPGKERELFAAITYTGGSTYYADSVKGRFTISRDNAKNTVYLQMNSLKPEDTAVYYCAARITSPRASSRGFYYWGQGTQVTVSS”, the “polyreactivity (PSR sort gate)” value is on record as “high polyreactivity”.

For “QVQLVESGGGLVQAGGSLRLSCAASGSTFKRYAMGRDRQAPGQERELVAAITWRGGSTYYADSVKGRFTISRDNAKNTVYLQMNSLKPEDTAVYYCNKASWKVGPGIGYDYWGQGTQVTVSS”, the “polyreactivity (PSR sort gate)” value is reported as “high polyreactivity”.

With “QVQLVESGGGLVQAGGSLRLSCAASGSIFAVYAMGRYRPAPGKERELVAASSTDYADSVKGRVTISRDNAKNTVYLQMNSLKPEDTAVYYCAKVGFGIPGGFYYWGHGTQVTVSS”, the “polyreactivity (PSR sort gate)” value was “low polyreactivity”.

For “QVQLVESGAGLVHAGGSLRLSCAASGRIFGINAMGWYRQAPGKERELVAAINWSGGSTYYADSVKGRFTISRDNAKNTVYLQMNSVKPEDTAVYYCAAQKYKRVGYWGQGTQVTVSS”, the “polyreactivity (PSR sort gate)” value is given as “high polyreactivity”.

Turning to “QVQLVESGGGLVQAGGSLRLSCAASGITFDHYAMGWYRPAPGKERELVATIRGSGTSTYYADSVKGRFTISRDNAKNTVYLQMHSLKPEDTAVYYCAARGRYRQFNYWGQGTQVTVSS”, the “polyreactivity (PSR sort gate)” value is given as “high polyreactivity”.

On to “QVQLVESGGGLVQSGDSLRLSCAASGIILLSYAMGWYIHAPGKERELVAAITSGGGTNYADSVKGRFTISRDNAKNTVYLQMNSLKPEDTAVYYCAVGAYAGLYYYWGQGTQVTVSS”, for which the “polyreactivity (PSR sort gate)” value was “low polyreactivity”.

“QVQLQESGGGLVQAGGSPRLSCAASDNIFPDSVMCWYRQAPGNERELVATIGFGATTNYADSVKGRFTISRDNAKNTVYLQMNSLKTEYTAVYYCAADPLNFDYFCYWGQGTQVTVSS”: the “polyreactivity (PSR sort gate)” value is given as “low polyreactivity”.

Take “QVQLVESGGGLVQAGGSLRLSCAASGIIFRNYAMGWYRQAPGEERELVATIRYRGGRTYADSVKGRFTISRDNAKNTVYLQMNSLKPEDTAVYYCNTYARYAYLTGRMDYWGQGTQVTVSS”: the “polyreactivity (PSR sort gate)” value was “high polyreactivity”.

For “QVQLVESGGGLVQAGGSLRLSCAASGIIFGIYARGWYRQAPGKERELVAAIRYRGGNTNYADSVKGRFTISRDNAKNTVYLQMNSLKPEDTAVYYCAAKRFADPYYYWGQGTQVTVSS”, the “polyreactivity (PSR sort gate)” value was “high polyreactivity”.

Regarding “QVQLVESGGGLVQAGGSLRLSCAASGSIIGPYAMGWYRQAHGKERELVAAITFSGGSTYYADSVKGRFTISRDNSKNTVYLQMNSLKPEDTAVYYCAAEYWYYTGYDYWGQGTQVTVSS”, the “polyreactivity (PSR sort gate)” value was “high polyreactivity”.
